This series deals with the molecule itself. Description: semi-native western blot (SDS PAGE gel, non-boiled and non-reduced samples); input samples of ERCC1-transfected A375 cells, blotted with anti-ERCC1 antibody; with or without 25 uM cisplatin for 5 h.

Broadly, the stoichiometry N is a count of units in the complex or per binding partner.

B1: ERCC1 (1-297), full-length wild-type human ERCC1, Myc-tagged and Flag-tagged copies (natural protein, UniProt P07992 1-297, looked up)
chain: MDPGKDKEGVPQPSGPPARKKFVIPLDEDEVPPGVAKPLFRSTQSLPTVDTSAQAAPQTYAEYAISQPLEGAGATCPTGSEPLAGETPNQALKPGAKSNSIIVSPRQRGNPVLKFVRNVPWEFGDVIPDYVLGQSTCALFLSLRYHNLHPDYIHGRLQSLGKNFALRVLLVQVDVKDPQQALKELAKMCILADCTLILAWSPEEAGRYLETYKAYEQKPADLLMEKLEQDFVSRVTECLTTVKSVNKTDSQTLLTTFGSLEQLIAASREDLALCPGLGPQKARRLFDVLHEPFLKVP
notes: ERCC1, human, full length, residues 1-297 (297 amino acid protein); Self-association was tested with two differently tagged copies; Each copy carries only one of the two tags: the Myc-tagged copy was precipitated and the Flag-tagged copy was detected; The Myc copy is in pcDNA3.1(-)/myc-His A, which as far as I recall adds a C-terminal myc-His; Construct details are in the Supplementary …
On to B1, for which the “stoichiometry N” value was 2.

For the origin of these results see article PMC5589656, “Disruption of DNA repair in cancer cells by ubiquitination of a destabilising dimerization domain of nucleotide excision repair protein ERCC1” (Oncotarget, 2017).
